# Values of other authors in patent US4287185A, “Method for the detection of viruses” (Suntory Ltd., priority 1978, dated 1981).
# B1: neocarzinostatin (protein, UniProt P0A3R9 35-147, looked up)
# Neocarzinostatin: AAPTATVTPSSGLSDGTVVKVAGAGLQAGTAYDVGQCAWVDTGVLACNPADFSSVTADANGSASTSLTVRRSFEGFLFDGTRWGTVDCTTAACQVGLSDAAGNGPEGVAISFN
# notes: carcinostatic agent having 109 constituent amino acids, already put into clinical practice
# Conditions: mouse, in vivo
molecule,measurement,value
B1,LD50 compared with that of SP (about 3.5 mg/Kg),almost the same
